Read-outs that look alike come from different tables or passages of the source.
Legend:
PD-L1 (human) [1] = molecular target: PD-L1 (human) (UniProt Q9NZQ7)
CD28 (human) [2] = molecular target: CD28 (human) (UniProt P10747)
PD-L1 (human) [3] = molecular target: PD-L1 (human) (UniProt Q9NZQ7); remark: listed apart in the source
CD28 (human) [4] = molecular target: CD28 (human) (UniProt P10747); remark: listed apart in the source

Chain of PD-L1 (human) (Q9NZQ7 19-290): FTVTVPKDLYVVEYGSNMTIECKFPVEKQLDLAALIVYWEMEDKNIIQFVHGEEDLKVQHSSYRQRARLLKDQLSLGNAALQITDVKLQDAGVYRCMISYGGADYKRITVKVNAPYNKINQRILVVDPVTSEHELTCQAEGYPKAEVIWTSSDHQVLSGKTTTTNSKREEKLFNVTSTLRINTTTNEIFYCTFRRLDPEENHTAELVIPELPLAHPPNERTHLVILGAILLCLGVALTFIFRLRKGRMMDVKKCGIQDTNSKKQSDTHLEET

Substance	Jurkat/IL2 reporter RLU at 50 nM, K562/OKT3/PD-L1 aAPC (PD-L1 (human) [1]) [RLU]	Jurkat/IL2 reporter RLU at 50 nM, K562/OKT3/PD-L1 aAPC (CD28 (human) [2]) [RLU]	Jurkat/IL2 reporter RLU at 50 nM, K562/OKT3/PD-L1 aAPC (PD-L1 (human) [3]) [RLU]	Jurkat/IL2 reporter RLU at 50 nM, K562/OKT3/PD-L1 aAPC (CD28 (human) [4]) [RLU]
CD80 R29H/E35D/M43V/M47I/I49V IgV-Fc (inert) (Fc fusion)	227	227	–	–
CD80 V22D/E35D/M47L/L85Q IgV-Fc (inert) (Fc fusion)	1140	1140	–	–
CD80 E35D/D46E/M47V/N63D/L85Q IgV-Fc (inert) (Fc fusion)	1380	1380	–	–
CD80 Q27H/E35D/D46V/M47L/A71G IgV-Fc (inert) (Fc fusion)	978	978	–	–
CD80 H18Y/V22A/E35D/M47V/T62S/A71G IgV-Fc (inert) (Fc fusion)	1380	1380	–	–
CD80 E35D/L85Q/K93T/E95V/L97Q IgV-Fc (inert) (Fc fusion)	315	315	–	–
CD80 V22A/E35D/M47I/Y87N IgV-Fc (inert) (Fc fusion)	1390	1390	–	–
CD80 E35D/M47I/T62S/L85Q IgV-Fc (inert) (Fc fusion)	1570	1570	–	–
CD80 E35D/T41S/M43I/A71G/D90G IgV-Fc (inert) (Fc fusion)	1120	1120	–	–
CD80 E35D/M47V/N48K/V68M/K89N IgV-Fc (inert) (Fc fusion)	1440	1440	–	–
CD80 E35D/D46V/M47L/V68M/L85Q/E88D IgV-Fc (inert) (Fc fusion)	1460	1460	–	–
CD80 Q33R/E35D/M47V/N48K/L85M/F92L IgV-Fc (inert) (Fc fusion)	215	215	–	–
CD80 E35D/T41S/M43V/M47I/L70M/A71G IgV-Fc (inert) (Fc fusion)	1670	1670	–	–
CD80 I30V/E35D/M47V/A71G/A91V IgV-Fc (inert) (Fc fusion)	1500	1500	–	–
CD80 E35D/M47L/A71G/L85M/F92Y IgV-Fc (inert) (Fc fusion)	1320	1320	–	–
CD80 E35D/A71G IgV-Fc (inert) (Fc fusion)	1190	1190	–	–
CD80 E35D/D46E/M47V/A71D IgV-Fc (inert) (Fc fusion)	683	683	–	–
CD80 E35D/A71D/L72V/R73H/E81K IgV-Fc (inert) (Fc fusion)	282	282	–	–
CD80 E35D/Y53H/A71G/D90G/L97R IgV-Fc (inert) (Fc fusion)	1720	1720	–	–
CD80 Q27H/E35D/M47I/L85Q/D90G IgV-Fc (inert) (Fc fusion)	1310	1310	–	–

Substance	Jurkat/IL2 reporter RLU at 50 nM, K562/OKT3/PD-L1 aAPC (PD-L1 (human) [1]) [RLU]	Jurkat/IL2 reporter RLU at 50 nM, K562/OKT3/PD-L1 aAPC (CD28 (human) [2]) [RLU]	Jurkat/IL2 reporter RLU at 50 nM, K562/OKT3/PD-L1 aAPC (PD-L1 (human) [3]) [RLU]	Jurkat/IL2 reporter RLU at 50 nM, K562/OKT3/PD-L1 aAPC (CD28 (human) [4]) [RLU]
CD80 E35D/K37E/M47V/N48D/L85Q/D90N IgV-Fc (inert) (Fc fusion)	851	851	–	–
CD80 E35D/M47V/A71G/E88D IgV-Fc (inert) (Fc fusion)	1220	1220	–	–
CD80 E35D/T41S/M47V/L97Q IgV-Fc (inert) (Fc fusion)	594	594	–	–
CD80 E35D/M38T/D46E/M47V/N48S IgV-Fc (inert) (Fc fusion)	1320	1320	–	–
CD80 E35D/M47V/N48T/L85Q IgV-Fc (inert) (Fc fusion)	897	897	–	–
CD80 E35D/M43I/M47V/K89N IgV-Fc (inert) (Fc fusion)	1090	1090	–	–
CD80 E35D/M38T/M43V/M47V/N48R/L85Q IgV-Fc (inert) (Fc fusion)	680	680	–	–
CD80 A26E/E35D/M47L/A71G IgV-Fc (inert) (Fc fusion)	1750	1750	–	–
CD80 E35D/T41S/M43I/M47L/A71G IgV-Fc (inert) (Fc fusion)	1540	1540	–	–
CD80 E35D/D46E/M47V/A71D/D90G IgV-Fc (inert) (Fc fusion)	1040	1040	–	–
CD80 H18Y/E35D/N48K IgV-Fc (inert) (Fc fusion)	1230	1230	–	–
CD80 E35D/T41S/M47V/A71G/K89N IgV-Fc (inert) (Fc fusion)	1020	1020	–	–
CD80 Q33L/E35D/M47V IgV-Fc (inert) (Fc fusion)	–	–	393	393
CD80 H18Y/E35D/V68M/L97Q IgV-Fc (inert) (Fc fusion)	–	–	4340	4340
CD80 E35D/M47I/L85Q/D90G IgV-Fc (inert) (Fc fusion)	1440	1440	–	–
CD80 Q33L/E35D/M47I/T62N/L85Q IgV-Fc (inert) (Fc fusion)	–	–	463	463
CD80 V22D/E35D/M47L/L70M/L97Q IgV-Fc (inert) (Fc fusion)	1540	1540	–	–
CD80 Q33L/E35D/M43I/Y53F/T62S/L85Q IgV-Fc (inert) (Fc fusion)	168	168	–	–
CD80 Q33L/E35D/M47L/A71G/F92S IgV-Fc (inert) (Fc fusion)	–	–	394	394
CD80 V22L/Q27H/E35D/M47I/A71G IgV-Fc (inert) (Fc fusion)	1120	1120	–	–

Substance	Jurkat/IL2 reporter RLU at 50 nM, K562/OKT3/PD-L1 aAPC (PD-L1 (human) [1]) [RLU]	Jurkat/IL2 reporter RLU at 50 nM, K562/OKT3/PD-L1 aAPC (CD28 (human) [2]) [RLU]	Jurkat/IL2 reporter RLU at 50 nM, K562/OKT3/PD-L1 aAPC (PD-L1 (human) [3]) [RLU]	Jurkat/IL2 reporter RLU at 50 nM, K562/OKT3/PD-L1 aAPC (CD28 (human) [4]) [RLU]
CD80 H18Y/A26E/E35D/M47L/L85Q/D90G IgV-Fc (inert) (Fc fusion)	1510	1510	–	–
CD80 Q33L/E35D/M47I IgV-Fc (inert) (Fc fusion)	–	–	423	423
CD80 A26E/Q33L/E35D/M47L IgV-Fc (inert) (Fc fusion)	–	–	476	476
CD80 Q33L/E35D/M47V/T79A IgV-Fc (inert) (Fc fusion)	–	–	527	527
CD80 A26E/Q33L/E35D/M47L/L85Q IgV-Fc (inert) (Fc fusion)	–	–	416	416
CD80 Q33L/E35D/M47I/N48D/A71G IgV-Fc (inert) (Fc fusion)	213	213	–	–
CD80 S15P/Q33L/E35D/M47L/L85Q IgV-Fc (inert) (Fc fusion)	–	–	468	468
CD80 E35D/M47V/A71G IgV-Fc (inert) (Fc fusion)	1190	1190	–	–
CD80 T28Y/Q33H/E35D/D46V/M47I/A71G IgV-Fc (inert) (Fc fusion)	580	580	–	–
CD80 V22A/R29H/E35D/D46E/M47I IgV-Fc (inert) (Fc fusion)	–	–	3310	3310
CD80 H18Y/E35D/M47L IgV-Fc (inert) (Fc fusion)	–	–	2980	2980
CD80 E35D/T41S/M43I/M47V/A71G IgV-Fc (inert) (Fc fusion)	1270	1270	–	–
CD80 Q33K/E35D/D46V/L85Q IgV-Fc (inert) (Fc fusion)	–	–	504	504
CD80 Y31S/E35D/M47L/T79L/E88G IgV-Fc (inert) (Fc fusion)	–	–	496	496
CD80 H18L/V22A/E35D/M47L/N48T/L85Q IgV-Fc (inert) (Fc fusion)	–	–	2650	2650
CD80 V22A/E35D/V68E/A71D IgV-Fc (inert) (Fc fusion)	–	–	538	538
WT CD80-ECD-Fc (effector) (Fc fusion)	–	1790	–	3040
CD80 Q33L/E35D/M47L/V68M/L85Q/E88D IgV-Fc (inert) (Fc fusion)	–	–	572	572
CD80 H18Y/Q33L/E35D/M47I IgV-Fc (inert) (Fc fusion)	–	–	486	486
